{"source": "paper PMC4855144", "about": "“Novel Coronin7 interactions with Cdc42 and N-WASP regulate actin organization and Golgi morphology” (Scientific Reports, 2016)", "binders": {"B1": {"name": "GFP-CRN7 WT (human Coronin7, full length, GFP on its N-terminus) (natural protein, UniProt P57737 1-925, looked up)", "chain": "MNRFRVSKFRHTEARPPRRESWISDIRAGTAPSCRNHIKSSCSLIAFNSDRPGVLGIVPLQGQGEDKRRVAHLGCHSDLVTDLDFSPFDDFLLATGSADRTVKLWRLPGPGQALPSAPGVVLGPEDLPVEVLQFHPTSDGILVSAAGTTVKVWDAAKQQPLTELAAHGDLVQSAVWSRDGALVGTACKDKQLRIFDPRTKPRASQSTQAHENSRDSRLAWMGTWEHLVSTGFNQMREREVKLWDTRFFSSALASLTLDTSLGCLVPLLDPDSGLLVLAGKGERQLYCYEVVPQQPALSPVTQCVLESVLRGAALVPRQALAVMSCEVLRVLQLSDTAIVPIGYHVPRKAVEFHEDLFPDTAGCVPATDPHSWWAGDNQQVQKVSLNPACRPHPSFTSCLVPPAEPLPDTAQPAVMETPVGDADASEGFSSPPSSLTSPSTPSSLGPSLSSTSGIGTSPSLRSLQSLLGPSSKFRHAQGTVLHRDSHITNLKGLNLTTPGESDGFCANKLRVAVPLLSSGGQVAVLELRKPGRLPDTALPTLQNGAAVTDLAWDPFDPHRLAVAGEDARIRLWRVPAEGLEEVLTTPETVLTGHTEKICSLRFHPLAANVLASSSYDLTVRIWDLQAGADRLKLQGHQDQIFSLAWSPDGQQLATVCKDGRVRVYRPRSGPEPLQEGPGPKGGRGARIVWVCDGRCLLVSGFDSQSERQLLLYEAEALAGGPLAVLGLDVAPSTLLPSYDPDTGLVLLTGKGDTRVFLYELLPESPFFLECNSFTSPDPHKGLVLLPKTECDVREVELMRCLRLRQSSLEPVAFRLPRVRKEFFQDDVFPDTAVIWEPVLSAEAWLQGANGQPWLLSLQPPDMSPVSQAPREAPARRAPSSAQYLEEKSDQQKKEELLNAMVAKLGNREDPLPQDSFEGVDEDEWD", "notes": "Coronin7 (CRN7), human, wild type, full length; CRIB motifs at 116-130 (NT-CRIB) and 582-599 (CT-CRIB); also called full-length CRN7; source: HEK293T, transfected (PEI), in lysate; not shown: GFP, N-terminal, kept"}}, "experiment_in_all_cases": "pull-down; Glutathione-Sepharose beads coated with GST alone or GST-GTPase fusions pre-loaded with GDP (DN) or GTPγS (CA), incubated with lysates of HEK293T cells expressing GFP-CRN7 WT or CRIB mutants; blot with GFP mAb K3-184-2 or anti-N-WASP; ImageJ quantification, input set at 100%", "conditions_in_all_cases": "one partner purified", "key": {"[1]": {"target": "T1, GST-Cdc42 dominant negative (DN/T17N), preloaded with GDP (UniProt P60953 1-191, T17N)", "T1 construct": "Preloaded with GDP; also called Cdc42DN; Cdc42 DN; source: E. coli BL21, purified (Glutathione Sepharose), held on glutathione-Sepharose beads", "T1 sequence (P60953 whole entry T17N)": "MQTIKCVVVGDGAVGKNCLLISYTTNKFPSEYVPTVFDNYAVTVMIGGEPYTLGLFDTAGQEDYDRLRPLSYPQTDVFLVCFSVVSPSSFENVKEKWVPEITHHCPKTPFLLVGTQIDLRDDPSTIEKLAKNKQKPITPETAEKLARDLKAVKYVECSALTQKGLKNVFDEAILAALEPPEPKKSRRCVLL"}, "[2]": {"target": "GST-Rac1 constitutively active (CA/Q61L), preloaded with GTPγS (UniProt P63000 1-192, Q61L)"}, "[3]": {"target": "GST-Rac1 dominant negative (DN/T17N), preloaded with GDP (UniProt P63000 1-192, T17N)"}}}
{"binder": "B1", "values": [{"measurement": "percent of input bound", "setting": "[1]", "value": "65 % of input"}, {"measurement": "percent of input bound", "setting": "[2]", "value": "7 % of input"}, {"measurement": "percent of input bound", "setting": "[3]", "value": "~17 % of input"}]}
